The test concerns the target GlnA3Mt (Rv1878), gamma-glutamylspermine synthetase of Mycobacterium tuberculosis (Mycobacterium tuberculosis H37Rv) (UniProt O07752). The test is described as follows: SEC. Background: Size exclusion chromatography separates by hydrodynamic size, large species first.

As to “GlnA3Mt (Rv1878), gamma-glutamylspermine synthetase of Mycobacterium tuberculosis (from UniProt O07752 1-450) (enzyme)”, the stoichiometry N amounted to 12.

As a reminder, the stoichiometry N is the number of molecules, sites or subunits per partner or assembly.
